From patent publication US20110294728A1, “Antiviral Polypeptides” (priority 2008, published 2011) come the findings set out here.

The target of this experiment is monomeric p51 subunit of HIV-1 RT (HIV-1) (UniProt P03366). Nature of the experiment: size-exclusion chromatography, 3.5 µM p51 with 20 µM FITC-PAW. Background: In gel filtration, larger molecules generally elute earlier.

“monomeric p51 subunit of HIV-1 RT (from UniProt P03366 600-1039) (enzyme)” gave a percent of p51 dimeric of 4.6%.
